Results from patent US20240116985A1 (published 2024).
Starred links: 1 amine or outer side, 2 acyl side, 3 side chain; linkers in the order of their positions; H or OH if unused. Positions of bridges follow the written chain, without caps; N, C: chain ends. Non-standard residues stand in square brackets, D forms with d. Primed or numbered codes have the meaning given here. B5(11) = 2,2-bis(4-pentenyl)glycine = 2-amino-2-(pent-4-en-1-yl)hept-6-enoic acid (stitching residue, bears both staples), C=CCCCC(CCCC=C)(N[*:1])C(=O)[*:2]; B5(4) = 2,2-bis(4-pentenyl)glycine = 2-amino-2-(pent-4-en-1-yl)hept-6-enoic acid (stitching residue), C=CCCCC(CCCC=C)(N[*:1])C(=O)[*:2]; B5(14) = 2-amino-2-(pent-4-en-1-yl)hept-6-enoic acid (bis-pentenylglycine), C=CCCCC(CCCC=C)(N[*:1])C(=O)[*:2]; Phe(3-Cl) = N[C@@H](Cc1cccc(Cl)c1)C(=O)O; Phe(4-Cl) = N[C@@H](Cc1ccc(Cl)cc1)C(=O)O; Phe(4-NH2) = Nc1ccc(C[C@H](N)C(=O)O)cc1; Ala(2-furyl) = N[C@@H](Cc1ccco1)C(=O)O; His(τ-Me) = Cn1cnc(C[C@H](N)C(=O)O)c1; αAllylPro = C=CC[C@@]1(C(=O)O)CCCN1; 3Thi = N[C@@H](Cc1ccsc1)C(=O)O; S8 = C=CCCCCCC[C@](C)(N)C(=O)O

T1: full-length beta-Catenin (Uniprot ID P35222) (Homo sapiens (Human), UniProt P35222 1-781)
T1 construct: the AlphaScreen used a Histidine (Nickel Chelate) detection kit, so a His tag is likely but not described; also called B-Catenin; bCat
T1 sequence: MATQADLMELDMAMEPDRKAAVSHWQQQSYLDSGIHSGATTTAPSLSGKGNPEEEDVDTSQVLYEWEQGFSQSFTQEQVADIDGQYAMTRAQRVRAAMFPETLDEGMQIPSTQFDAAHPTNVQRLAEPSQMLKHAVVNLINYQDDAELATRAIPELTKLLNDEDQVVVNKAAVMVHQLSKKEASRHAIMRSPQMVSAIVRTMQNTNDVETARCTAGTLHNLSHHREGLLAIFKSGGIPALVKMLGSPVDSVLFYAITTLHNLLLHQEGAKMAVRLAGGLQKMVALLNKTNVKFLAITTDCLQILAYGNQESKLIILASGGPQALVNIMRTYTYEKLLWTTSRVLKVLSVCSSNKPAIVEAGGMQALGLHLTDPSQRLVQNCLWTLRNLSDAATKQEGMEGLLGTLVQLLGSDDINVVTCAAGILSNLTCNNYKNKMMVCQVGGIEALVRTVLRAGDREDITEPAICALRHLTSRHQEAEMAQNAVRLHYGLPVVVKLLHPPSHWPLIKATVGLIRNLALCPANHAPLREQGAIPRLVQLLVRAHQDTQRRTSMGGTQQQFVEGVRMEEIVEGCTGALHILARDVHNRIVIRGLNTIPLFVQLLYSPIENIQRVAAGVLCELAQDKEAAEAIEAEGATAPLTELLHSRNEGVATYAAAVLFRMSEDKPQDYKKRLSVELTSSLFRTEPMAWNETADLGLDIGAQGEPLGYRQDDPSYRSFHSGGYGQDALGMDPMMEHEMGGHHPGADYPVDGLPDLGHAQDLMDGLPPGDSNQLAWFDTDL

B1: I-328 (peptide)
peptide: Ac-[αAllylPro]DA[B5(4)]DDAA[Ala(2-furyl)]V[S8]FWQ-NH2
modifications: staple 1-4, 4-11; not fully specified; printed as Ac-PL3-Asp-Ala-B5-Asp-Asp-Ala-Ala-2FurA-Val-S8-Phe-Trp-Gln-NH2
notes: Ac-PL3-Asp-Ala-B5-Asp-Asp-Ala-Ala-2FurA-Val-S8-Phe-Trp-Gln-NH2; stapled peptide composition
B2: I-308 (peptide)
peptide: Ac-[αAllylPro]DA[B5(4)]DDAA[Phe(4-Cl)]V[S8]FWQ-NH2
modifications: staple 1-4, 4-11; not fully specified; printed as Ac-PL3-Asp-Ala-B5-Asp-Asp-Ala-Ala-4C1F-Val-S8-Phe-Trp-Gln-NH2
notes: Ac-PL3-Asp-Ala-B5-Asp-Asp-Ala-Ala-4C1F-Val-S8-Phe-Trp-Gln-NH2; stapled peptide composition
B3: I-323 (peptide)
peptide: Ac-[αAllylPro]DA[B5(11)]DDAA[Phe(4-NH2)]V[S8]FWQ-NH2
modifications: staple 1-4, 4-11; not fully specified; printed as Ac-PL3-Asp-Ala-B5-Asp-Asp-Ala-Ala-4AmPhe-Val-S8-Phe-Trp-Gln-NH2
notes: Ac-PL3-Asp-Ala-B5-Asp-Asp-Ala-Ala-4AmPhe-Val-S8-Phe-Trp-Gln-NH2; stapled peptide composition
B4: I-322 (peptide)
peptide: Ac-[αAllylPro]DA[B5(11)]DDAA[Phe(4-NH2)]V[S8]FWQ-NH2
modifications: staple 1-4, 4-11; not fully specified; printed as Ac-PL3-Asp-Ala-B5-Asp-Asp-Ala-Ala-4AmPhe-Val-S8-Phe-Trp-Gln-NH2
notes: as for B3
B5: I-307 (peptide)
peptide: Ac-[αAllylPro]DA[B5(4)]DDAA[Phe(3-Cl)]V[S8]FWQ-NH2
modifications: staple 1-4, 4-11; not fully specified; printed as Ac-PL3-Asp-Ala-B5-Asp-Asp-Ala-Ala-3C1F-Val-S8-Phe-Trp-Gln-NH2
notes: Ac-PL3-Asp-Ala-B5-Asp-Asp-Ala-Ala-3C1F-Val-S8-Phe-Trp-Gln-NH2; stapled peptide composition
B6: I-327 (peptide)
peptide: Ac-[αAllylPro]DA[B5(4)]DDAA[Ala(2-furyl)]V[S8]FWQ-NH2
modifications: staple 1-4, 4-11; not fully specified; printed as Ac-PL3-Asp-Ala-B5-Asp-Asp-Ala-Ala-2FurA-Val-S8-Phe-Trp-Gln-NH2
notes: as for B1
B7: I-306 (peptide)
peptide: Ac-[αAllylPro]DA[B5(4)]DDAA[Phe(3-Cl)]V[S8]FWQ-NH2
modifications: staple 1-4, 4-11
notes: as for B5
B8: I-305 (peptide)
peptide: Ac-[αAllylPro]DA[B5(4)]DHAAFV[S8]FWQ-NH2
modifications: staple 1-4, 4-11
notes: Ac-PL3-Asp-Ala-B5-Asp-His-Ala-Ala-Phe-Val-S8-Phe-Trp-Gln-NH2; stapled peptide composition
B9: I-331 (peptide)
peptide: Ac-[αAllylPro]DA[B5(14)]DDAAHV[S8]FWQ-NH2
modifications: staple 1-4, 4-11; not fully specified (residue 9)
notes: Ac-PL3-Asp-Ala-B5-Asp-Asp-Ala-Ala-3meH-Val-S8-Phe-Trp-Gln-NH2; stapled peptide composition
B10: I-330 (peptide)
peptide: Ac-[αAllylPro]DA[B5(4)]DDAA[His(τ-Me)]V[S8]FWQ-NH2
modifications: staple 1-4, 4-11
notes: Ac-PL3-Asp-Ala-B5-Asp-Asp-Ala-Ala-1meH-Val-S8-Phe-Trp-Gln-NH2; stapled peptide composition
B11: I-304 (peptide)
peptide: Ac-[αAllylPro]DA[B5(4)]DHAAFV[S8]FWQ-NH2
modifications: staple 1-4, 4-11
notes: as for B8
B12: I-329 (peptide)
peptide: Ac-[αAllylPro]DA[B5(4)]DDAA[His(τ-Me)]V[S8]FWQ-NH2
modifications: staple 1-4, 4-11; not fully specified; printed as Ac-PL3-Asp-Ala-B5-Asp-Asp-Ala-Ala-1meH-Val-S8-Phe-Trp-Gln-NH2
notes: as for B10
B13: I-326 (peptide)
peptide: Ac-[αAllylPro]DA[B5(4)]DDAA[3Thi]V[S8]FWQ-NH2
modifications: staple 1-4, 4-11
notes: Ac-PL3-Asp-Ala-B5-Asp-Asp-Ala-Ala-3Thi-Val-S8-Phe-Trp-Gln-NH2; stapled peptide composition

These binders were tested against T1, full-length beta-Catenin (Uniprot ID …) (assay: FP competition vs 5FAM-TCF4(10-53) probe on full-length beta-catenin).
Procedure: The plate was incubated protected from light for 60 minutes at 20° C. prior to read. Reads were performed on a CLARIOstar plate reader (BMG Labtech) in duplicate, and data were fitted to a 1:1 binding model with hill slope using an in-house script. All provided concentrations are final concentrations.

EC50 [µM] | Binder
1.91 | B1
5 | B2
3.47 | B3
5 | B4
4.2 | B5
4.72 | B6
5 | B7
3.98 | B8
5 | B9
5 | B10
5 | B11
5 | B12
1.75 | B13
